Laboratory results as given in US20240325499A1, “FGF21 COMPOUND / GLP-1R AGONIST COMBINATIONS WITH OPTIMIZED ACTIVITY RATIO” (SANOFI, priority 2018, published 2024).

Molecular target: human FGFR1c (FGF receptor 1c isoform) together with human beta-Klotho (KLB) (human) (UniProt P11362)
Assay: cell-based or functional assay

mature human wild-type FGF21, FGF21(His29-Ser209), sequence (Q9NSA1 29-209 L174P): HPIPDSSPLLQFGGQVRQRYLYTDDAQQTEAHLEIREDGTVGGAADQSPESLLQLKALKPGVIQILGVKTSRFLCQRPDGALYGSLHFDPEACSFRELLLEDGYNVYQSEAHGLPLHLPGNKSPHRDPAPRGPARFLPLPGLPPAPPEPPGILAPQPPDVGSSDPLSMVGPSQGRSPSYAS

pERK ICW EC50 (nmol/L): 0.18 nmol/L | pFGFR ICW EC50 (nmol/L): 4.8 nmol/L
Substance: mature human wild-type FGF21, FGF21(His29-Ser209) (from UniProt Q9NSA1 29-209) (ligand)
